Residue numbers refer to the chain shown, from its start. Values belong to the binder of their own block, whether it stands above or below them.
How the values were obtained:
[1] = target: recombinant cynomolgus monkey CD3ε/δ heterodimer (cynomolgus monkey) (UniProt Q95LI5); experiment: ELISA, coated CD3ε/δ
[2] = target: recombinant human CD3ε/δ heterodimer (human) (UniProt P07766); experiment: ELISA, coated CD3ε/δ
Chain of recombinant human CD3ε/δ heterodimer (human) (P07766 23-126, stated change not applied, chain 1 of 2): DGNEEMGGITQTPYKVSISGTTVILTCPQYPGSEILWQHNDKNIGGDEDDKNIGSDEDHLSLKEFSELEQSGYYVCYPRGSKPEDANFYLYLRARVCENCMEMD
Chain of recombinant human CD3ε/δ heterodimer (human) (P04234 22-105, stated change not applied, chain 2 of 2, further chain): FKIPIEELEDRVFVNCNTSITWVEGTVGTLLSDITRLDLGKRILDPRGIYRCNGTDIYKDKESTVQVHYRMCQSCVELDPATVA

Chain of recombinant cynomolgus monkey CD3ε/δ heterodimer (cynomolgus monkey) (Q95LI5 22-117, stated change not applied, chain 1 of 2): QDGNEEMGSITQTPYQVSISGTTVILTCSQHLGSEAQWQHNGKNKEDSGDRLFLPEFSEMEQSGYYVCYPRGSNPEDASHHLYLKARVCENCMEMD
Chain of recombinant cynomolgus monkey CD3ε/δ heterodimer (cynomolgus monkey) (Q95LI8 22-105, stated change not applied, chain 2 of 2, further chain): as the sequence (P04234 22-105, stated change not applied, chain 2 of 2, further chain) above, with I5V, N15K, I20V, S32T, D33N, I34N, T64A, S74N, V83L counted along it

B4: E02 (antibody, human IgG1, lambda, L234A L235A, V domains shown)
VH: EVQLVESGGGLVQPGGSLKLSCAASGFTFNTYAMNWVRQASGKGLEWVARIRSKYNNYATYYADSVKDRFTISRDDSKNTAYLQMNSLKTEDTAVYYCVRHGNFGNSYVSWFAYWGQGTLVTVSS
VL: QAVVTQEPSLTVSPGGTVTLTCRSSTGAVTTSNYANWFQQKPGQAPRTLIYGTNKRAPWTPARFSGSLLGDKAALTLSGAQPEDEAEYYCALWYSNLWVFGGGTKLTVLG
Absorbance (450 nm) [1]: 0.07
Absorbance (450 nm) [2]: 0.095

B6: E05 (antibody, human IgG1, lambda, L234A L235A, V domains shown)
VH: B4 VH
VL: B4 VL with T48G, D71G
Absorbance (450 nm) [1]: 0.068
Absorbance (450 nm) [2]: 0.085

B9: A01 (antibody, human IgG1, lambda, L234A L235A, V domains shown)
VH: B4 VH with A49G
VL: B4 VL with D71G
Absorbance (450 nm) [1]: 0.098
Absorbance (450 nm) [2]: 0.152

B10: E06 (antibody, human IgG1, lambda, L234A L235A, V domains shown)
VH: B4 VH
VL: B4 VL with T48G
Absorbance (450 nm) [1]: 0.086
Absorbance (450 nm) [2]: 0.112

B11: F05 (antibody, human IgG1, lambda, L234A L235A, V domains shown)
VH: B4 VH with A81L
VL: B4 VL with T48G, D71G
Absorbance (450 nm) [1]: 0.075
Absorbance (450 nm) [2]: 0.105

B12: F02 (antibody, human IgG1, lambda, L234A L235A, V domains shown)
VH: B4 VH with A81L
VL: B4 VL
Absorbance (450 nm) [1]: 0.076
Absorbance (450 nm) [2]: 0.093

B13: F03 (antibody, human IgG1, lambda, L234A L235A, V domains shown)
VH: B4 VH with A81L
VL: B4 VL with Y51G, D71G
Absorbance (450 nm) [1]: 0.101
Absorbance (450 nm) [2]: 0.128

B16: E04 (antibody, human IgG1, lambda, L234A L235A, V domains shown)
VH: B4 VH
VL: B4 VL with Y51G
Absorbance (450 nm) [1]: 0.067
Absorbance (450 nm) [2]: 0.087

B17: F07 (antibody, human IgG1, lambda, L234A L235A, V domains shown)
VH: B4 VH with A81L
VL: B4 VL with T48G, Y51G, D71G
Absorbance (450 nm) [1]: 0.163
Absorbance (450 nm) [2]: 0.133

B18: E07 (antibody, human IgG1, lambda, L234A L235A, V domains shown)
VH: B4 VH
VL: B4 VL with T48G, Y51G, D71G
Absorbance (450 nm) [1]: 0.115
Absorbance (450 nm) [2]: 0.109

B22: F04 (antibody, human IgG1, lambda, L234A L235A, V domains shown)
VH: B4 VH with A81L
VL: B4 VL with Y51G
Absorbance (450 nm) [1]: 0.069
Absorbance (450 nm) [2]: 0.084

B23: E01 (antibody, human IgG1, lambda, L234A L235A, V domains shown)
VH: B4 VH
VL: B4 VL with D71G
Absorbance (450 nm) [1]: 0.078
Absorbance (450 nm) [2]: 0.1

B26: F06 (antibody, human IgG1, lambda, L234A L235A, V domains shown)
VH: B4 VH with A81L
VL: B4 VL with T48G
Absorbance (450 nm) [1]: 0.096
Absorbance (450 nm) [2]: 0.115

B27: E03 (antibody, human IgG1, lambda, L234A L235A, V domains shown)
VH: B4 VH
VL: B4 VL with Y51G, D71G
Absorbance (450 nm) [1]: 0.076
Absorbance (450 nm) [2]: 0.134

B29: F01 (antibody, human IgG1, lambda, L234A L235A, V domains shown)
VH: B4 VH with A81L
VL: B4 VL with D71G
Absorbance (450 nm) [1]: 0.086
Absorbance (450 nm) [2]: 0.118

Continued, values first:

Absorbance (450 nm) [1]: 0.098
Absorbance (450 nm) [2]: 0.122
B1: D09 (antibody, human IgG1, lambda, L234A L235A, V domains shown)
VH: B4 VH with A49G, K78Q, N79S, A81L
VL: B4 VL with F38V, D71G

Absorbance (450 nm) [1]: 0.075
Absorbance (450 nm) [2]: 0.098
B2: E11 (antibody, human IgG1, lambda, L234A L235A, V domains shown)
VH: B4 VH
VL: B4 VL with F38V, Y51G, D71G

Absorbance (450 nm) [1]: 0.134
Absorbance (450 nm) [2]: 0.138
B3: D11 (antibody, human IgG1, lambda, L234A L235A, V domains shown)
VH: B4 VH with A49G, K78Q, N79S, A81L
VL: B4 VL with F38V, Y51G, D71G

Absorbance (450 nm) [1]: 0.064
Absorbance (450 nm) [2]: 0.088
B5: E12 (antibody, human IgG1, lambda, L234A L235A, V domains shown)
VH: B4 VH
VL: B4 VL with F38V, Y51G

Absorbance (450 nm) [1]: 0.532
Absorbance (450 nm) [2]: 0.569
B7: D13 (antibody, human IgG1, lambda, L234A L235A, V domains shown)
VH: B4 VH with A49G, K78Q, N79S, A81L
VL: B4 VL with F38V, T48G, D71G

Absorbance (450 nm) [1]: 0.078
Absorbance (450 nm) [2]: 0.105
B8: E14 (antibody, human IgG1, lambda, L234A L235A, V domains shown)
VH: B4 VH
VL: B4 VL with F38V, T48G

Absorbance (450 nm) [1]: 0.099
Absorbance (450 nm) [2]: 0.074
B14: E08 (antibody, human IgG1, lambda, L234A L235A, V domains shown)
VH: B4 VH
VL: B4 VL with T48G, Y51G

Absorbance (450 nm) [1]: 0.113
Absorbance (450 nm) [2]: 0.117
B15: D10 (antibody, human IgG1, lambda, L234A L235A, V domains shown)
VH: B4 VH with A49G, K78Q, N79S, A81L
VL: B4 VL with F38V

Absorbance (450 nm) [1]: 0.114
Absorbance (450 nm) [2]: 0.139
B19: E13 (antibody, human IgG1, lambda, L234A L235A, V domains shown)
VH: B4 VH
VL: B4 VL with F38V, T48G, D71G

Absorbance (450 nm) [1]: 0.084
Absorbance (450 nm) [2]: 0.096
B20: E09 (antibody, human IgG1, lambda, L234A L235A, V domains shown)
VH: B4 VH
VL: B4 VL with F38V, D71G

Absorbance (450 nm) [1]: 0.05
Absorbance (450 nm) [2]: 0.092
B21: A09 (antibody, human IgG1, lambda, L234A L235A, V domains shown)
VH: B4 VH with A49G
VL: B4 VL with F38V, D71G

Absorbance (450 nm) [1]: 0.113
Absorbance (450 nm) [2]: 0.149
B24: D14 (antibody, human IgG1, lambda, L234A L235A, V domains shown)
VH: B4 VH with A49G, K78Q, N79S, A81L
VL: B4 VL with F38V, T48G

Absorbance (450 nm) [1]: 0.065
Absorbance (450 nm) [2]: 0.083
B25: E10 (antibody, human IgG1, lambda, L234A L235A, V domains shown)
VH: B4 VH
VL: B4 VL with F38V

Absorbance (450 nm) [1]: 0.114
Absorbance (450 nm) [2]: 0.095
B28: D12 (antibody, human IgG1, lambda, L234A L235A, V domains shown)
VH: B4 VH with A49G, K78Q, N79S, A81L
VL: B4 VL with F38V, Y51G
